Results published in the domain aggregation screens of Martell et al. (2025).

Assay: soluble fraction after stress (log2 fold change); higher = more stays soluble; pooled small domains, quantitative proteomics
Settings: stress: 75 degC
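Note: 20 min heating vs room temperature control held 20 min.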

Sequence | soluble fraction (log2)
HMWGQDVLFTIDKKEFKGKLLEQSDKHTTFLPDGQKTPQKIPNRLIKEIHLGSNKIIDFGNDFLI | -0.19
HMWPDDAIALPTRDGQDVGGAQERTMLAFASGAAGIRTVEEINPDGSITRLRTRYGWPTFETEGARTAAAE | -0.0272
HMWTIDPLDWKTENADQIVEKVMSEAKENAIILLHDRYEASVEAALRIVDLLKEQGYTFVTADKLV | -0.154
HMWTKKELWNAIAKLPKKQRTVVMMRIAQNLPYKDISEITGMSIGSAKVNYHHAVNSLKQWLS | -0.746
HMWTPLVVAVLIGGTHRFGELRAAVGGITPKVLTETLRSMERDGLVVREQTPGVPPRVDYALTPLGA | -0.493
HMYAGTWISESGQWKYRNDDGSFAKGWFQDLDSRWYYFDANGHMLSDTLTPDGYRLGEDGAWVND | 0.0742
HMYDESVFTGEYHYYYEKLSDDDKLIYRQIYAMMQKRMDGISLNTTDTDNVSRIQQFVLLDNPQF | -2.61
HMYDKKVFRLLFILNQLDSRKKVSTGELAKEFNVSPRTVQRDIVLLNTTGFPIISLEKGYHSFMEGFSLK | -1.19
HMYDPVNEIGRVLKKIRQERSLTLDNVAEITGVSKTMLGQIERGVSVPTISVLWKIAKGLQVSLSTLLNE | -3.24
HMYEGLPVTLIIDGRVIEANLAKANRDMAWLERELANSGVRSHHDVFFATLDSRGQLYYQVKN | -1.04
HMYELDIYPNPAIDKINVLLPSSTTLPVKVEIYDIMGKKVNSLLTTKKAFTIETDQFEKGIYFVKA | 0.331
HMYELREGDVVSVRILSQTGQNSYIASFAGGRFSVTSERAFAPGTVFSASVSLKDGTLVLSPL | -3.6
HMYFEDEELDRFVGTPAGAYTEEDVEEFRDVLLSLDIEEVPSWVRSLQLRGIDFPETLRPELYLL | -3.01
HMYGQEVKVLGLFGDRAFIKVDEKSAVIRIGQSHQNVQLKSISNQKAILLVDNKDIALGLGDSYQSA | -1.69
HMYGVAEFDEKGNVLSIEEKPVQPKSNYAVVGLYFYPNKVVGVASGIKPSARGELEITTVNQTFLRDEELK | 0.204
HMYHNKFADLAGFIAFNEKNEEIFTFGKYKGQNVKEVFQRDIGYYGWLQNADFPLYTKKVFTAIQLRSR | -2.44
HMYHPGFEALREVARQGSFIKAARALGISGPAVSKQIKSLEARLNLVLLHRTTRAVTLTEAGQRLTEILD | -2.14
HMYIDNVTIYDVGFNERIVHALERAGVKNLYDLSQMNFYQLQRIRNLGASSLEKVINRIHSYGILLKNES | -0.902
HMYIEKTAYINDTAVNVRKSATTDSDVIKVLALNTEITIIGEENDWYKVKSGNDIGYIAKRLVSDQKKE | -0.187
HMYIKYETVLQNITERIAALRKNGTLVLDGERTLAAEFDASRGTIRKAMRQLEENGTILREGYVTRILPE | -1.95
HMYIVVPDLSKKDINEVANILAAQSLRFQVIDSANFRSDFPKNAVISQKPLAGSEVKVNKKIYLQLNPS | -0.43
HMYLEARVKSTTPILSKPNELGKSLGKLYTNDFVALVSLHKNGLDSYYRTANGGYINAADVVIDRDV | -1.49
HMYLPLREVVFNALRTAIIHGEFKPGERLMEMHLAKSLGVSRTPVREAMRMLELEGLVVMIPKKGAEVAR | -2.93
HMYMKMNDRIRSRRKELKMTQSVLAKLVGVNRVTITGWESGDYKPGGENLQALAAALEKTPQWLLDGKD | -2.82

Sequence | soluble fraction (log2)
HMYMTTADADMWKYVNTGRYNNDIQLMEEYKNRSMDSFEVITPEQQRKYNKAAMNLNSYYAWADPSYKPNP | -0.483
HMYMWQVEDLLRANELDIENIKKTIIDHYQLDDAQKSELTRWYEDLINMMRLEGVTKEGHLQINK | -2.02
HMYNSYALTARELELVNYVLKGNSRREMAEDSGLKENTVASYMKRLYRKIKVHSRKELKELFM | -0.151
HMYPDNEQTLSKLAFEFFKKRNIPISQSNINQIVTKSLGDRENLYNELLKIENFSTSGKKLTDNVIKKLIN | -0.0858
HMYPFSEETLKEKIREYLKTNRSINRRVLEREFYIRKQTALNWLNRLVDSGFLIKEGVRNSPVYFLAE | -0.884
HMYPMQNYSTIIGVIELRQQSVGYATTQKRYGIGSSTVTLIMKRFKELGLTLEELRAMPPKAVEVAFYPPE | -1.69
HMYPNEFPRKVMSVFESSGLEMFRTIEMLLAIPEYETPLPYGSGVSRSDIFVLAKSAGNLVSITV | -0.117
HMYQFFVDPGQIQGKRVTITGSDVNHIKNVLRMRIGEEIAVSNGKDGLEYRFGIDEILEDEVIGTLRFVKE | -1.61
HMYRIGELAKLADVTPDTIRYYEKQQMMDHDVRTEGGFRLYSDNDLQRLKFIRYARQLGFTLEAIRELLSI | -2.27
HMYRWSEEIFEKLRSDIMAALDLSREQNDEEIYRFIETEVEEYSQNNLLTLKEREQLEHLLFNSL | -1.44
HMYSKVSFTVSVGMTSERVSASLKALGIIDDSAKFNRYLVSNGYSTRIKVGTVELQAGQSYAEIASKLV | -3.88
HMYSLSELERIKNFLTGYMSDYSIMMLDANEITNQVDISLKDYSDDNIESIKAAVLSHGGKTDYLNFIDDS | -0.926
HMYSQEEKRYMEIMEIKPQELSAENLKKQYKKLVKKYHPDLHQDDKQAAEEKFKQLTNAYQVLMRRF | -0.474
HMYSSASKEEIDQLMKRLILNLDAKGYFWPQDKEKSLKLYLHNLFSKLPLNSSDIRFLHGLIRALSEE | -1.3
HMYSSIIGIAFTRAENKPAAPTGGSYSNPHPVDGNWKAAPYDGDGNLWYSIRHFNENVDIQDREWSDPTLG | -0.238
HMYSYSGSVINTYKVPVSVVLKDANGSAIASWDLPVDQSLGISAKDIATSSGTIEITGDGVNETKTVTFTK | -0.12
HMYTGSEGMAGLEGRAVTEVGPEAGTVLVKGEYWQARSDEPIATDRKIRVIRLEGLRLRVAEIHPEG | -0.45
HMYTPDYLSDLMVRMAHHSTAIEGNTLTQGETKSVLVDGYIPRAMDMRELNEVLNYKAFMTFLVE | -0.0939
HMYTTHTQSELNEAARFNGRATYQKGIYYNESKKEHFKVVNGKYQALPNVKQVNGDSWIDKTGITHKG | -0.324
HMYTVQQLARLAGITPRTLRHYDAIGLLKPTRVGENGYRYYGSEALLRLQSILLYRELDMPLEDIRRVLDS | -3.5
HMYVPEVPVPDLLGRSEEEAKNLIEDLGLVFKVSKREYSKEYDEGHVMEQSVDEGAKVKENYPVEVVISR | 0.181
HMYYDDEELDDYRGKASDAYTAAEVEQFEEVLTTMRPEEVHGWLRSLQLRGVALPDALKDEAYMIVSEQAE | -0.0106
HMYYIITNGKYWVIENPIRPGEYMESTKSSNAKQFTFKQAKNLLNARSKKLGWIRNGYSMVGED | -2.46
